We go through 116 sequences from the supplement of paper PMC10724198.

± gives the standard deviation of the averaged measurements.
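Also: PSI is a weighted mean of sequencing reads over stability bins, variants kept only with over 10 reads, mCherry proximal and sfGFP distal, peptide attached via GGGS linker.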

In the data set the test system is Saccharomyces cerevisiae. The data set can be described thus: protein stability index of tFT-peptide fusion (C-terminal peptide) (PSI (0-1 scale)); higher = more stable (slower turnover). The following applies: genetic background: wild type; temperature: 30 C.
Consider KKMKVEKGITQK, for which the protein stability index came to 0.775 ± 0.068.
Sequence KKNKKKNRTKIE gave a protein stability index of 0.657 ± 0.022.
Then KKNMIIRVMIGV, with 0.495 ± 0.074; and KKQEKKKNKNDR, with 0.646 ± 0.028.
Then KKQKEKEKLVYC, with 0.733 ± 0.085; and KKQNRTRLKKSK, with 0.702 ± 0.03.
For the sequence KKQQTIKKKKKR, the protein stability index stood at 0.7014 ± 0.003.
Then KKRHERNYLVQS, with 0.662 ± 0.066; and KKRRTCPNRRDK, with 0.554 ± 0.036; and KKRTQKKKKYNR, with 0.6943 ± 0.0063.
Then KKSRLNRIVMRH, with 0.664 ± 0.073.
Then KKTEKKYNRNRG, with 0.786 ± 0.1.
For KKTKKKRGEYKK, the protein stability index came to 0.714 ± 0.017.
Then KKTLIQKEQIRR, with 0.644 ± 0.022; and KLKDRRKNTEEI, with 0.6961 ± 0.0033; and KLKKNKTREMET, with 0.789 ± 0.018.
KLNLKVRKRERP gave a protein stability index of 0.66971 ± 0.00065.
KLPRPPQRLRLP registered a protein stability index of 0.684 ± 0.066.
Then KLQKINKIKNEI, with 0.685 ± 0.032; and KLSIWRADKDLE, with 0.688 ± 0.015; and KLSTGRGRTGYV, with 0.698 ± 0.072.
The value for KLVKWEGGYIVS was 0.61 ± 0.019; that for KMGRTEIWTIHL was 0.685 ± 0.053; that for KMSEERIGIEKN was 0.7038 ± 0.0029.
Sequence KMYKRPNYQKTK had a protein stability index of 0.64 ± 0.024.
Then KNGQGQRKIPGK, with 0.721 ± 0.023; and KNITIKKSKIKD, with 0.61 ± 0.055; and KNKKNKCNKVKK, with 0.726 ± 0.024.
Then KNKKYKNKQKQR, with 0.714 ± 0.094; and KNKMGRKYTLPH, with 0.654 ± 0.081.
The value for KNKTKQKTRTET was 0.704 ± 0.013.
KNKTLNKIIRLP registered a protein stability index of 0.717 ± 0.042.
Then KNKTTKKRKKRP, with 0.695 ± 0.057; and KNNITTTNKRMK, with 0.679 ± 0.0071.
Then KNRAEMREGIAL, with 0.63 ± 0.018; and KNRENNTKIEIQ, with 0.661 ± 0.014; and KPALPPITPNLC, with 0.6727 ± 0.0036.
Then KPQAGPSRHPPS, with 0.759 ± 0.064.
KQGHNEIMTKGK yielded a protein stability index of 0.6814 ± 0.0015.
Then KQIPLFILRPQT, with 0.704 ± 0.1.
The value for KQKARRARGKEG was 0.65 ± 0.024; that for KQQCKTGRRRLV was 0.716 ± 0.072.
Then KQQRTKKKEKKR, with 0.628 ± 0.097.
In turn, KQRSKKCRETYR registered a protein stability index of 0.729 ± 0.019.
The value for KQRTMNKVSKEK was 0.683 ± 0.045.
Then KQTICNTGPQWV, with 0.6267 ± 0.0022; and KREKGLKQIVRL, with 0.6827 ± 0.0029; and KRESETPKKHRK, with 0.711 ± 0.068.
Then KRGRGPQFCDLY, with 0.693 ± 0.045.
With KRIQGEICVPGA, the protein stability index came to 0.682 ± 0.041.
The value for KRITRKRIKRRR was 0.7772 ± 0.0015; that for KRKDKKKKYIRK was 0.759 ± 0.085.
Consider KRRKKKSKERER, for which the protein stability index is 0.672 ± 0.015.
Sequence KRRNKTNREDTM registered a protein stability index of 0.68 ± 0.052.
The value for KRTKKKKKMELE was 0.719 ± 0.013.
In the case of KRYRLRVKIGNT, the protein stability index was 0.5291 ± 0.0046.
Then KSAPAIRASRPR, with 0.715 ± 0.0064.
Then KSEGKKHIDKKR, with 0.63 ± 0.034.
Then KSEKKKKRKEKK, with 0.718 ± 0.052.
Sequence KSGLMFCIGDWC displayed a protein stability index of 0.7 ± 0.044.
Then KSKGVRITKVSN, with 0.783 ± 0.02; and KSKIKKKKQTKR, with 0.652 ± 0.051; and KSRKEREKSDNQ, with 0.678 ± 0.037.
Sequence KSSNIDINCNQN had a protein stability index of 0.691 ± 0.053.
Then KSVMVLRLLELK, with 0.636 ± 0.032; and KSVPLCSLGTTG, with 0.6726 ± 0.0036; and KSVQEPTPRKYR, with 0.674 ± 0.026.
With KSVSIKGKFTSK, the protein stability index was 0.6494 ± 0.00087.
The value for KTCGVGLDRMIG was 0.714 ± 0.0099.
On to KTKKKQKQHRKQ, for which the protein stability index was 0.686 ± 0.033.
KTKVIFMYKKGQ had a protein stability index of 0.675 ± 0.021.
Then KTMCNNLTKLQR, with 0.622 ± 0.029.
The value for KTNKKTIVKSQT was 0.674 ± 0.046.
KTQKYEIKNLKK yielded a protein stability index of 0.581 ± 0.082.
KTRQSNAPRRTF returned a protein stability index of 0.707 ± 0.0091.
The value for KVGQWLRGKSKR was 0.7171 ± 0.00075.
Then KVNKKKVITKQE, with 0.713 ± 0.027; and KVQRINNKKERK, with 0.677 ± 0.044.
The value for KVWQISEVGAGY was 0.617 ± 0.024.
In the case of KYGTPFPPEVEM, the protein stability index came to 0.718 ± 0.034.
The value for KYNKQRQTRIET was 0.663 ± 0.019; that for LAARHLNFPPIL was 0.711 ± 0.009; that for LACTGFPPPFPL was 0.675 ± 0.017.
The value for LADFLGVSLLAV was 0.5695 ± 0.0031; that for LAFSGAWGILPL was 0.682 ± 0.067.
Then LAHRASICLARL, with 0.695 ± 0.063.
Turning to LALEVSNLSCSV, the protein stability index is 0.696 ± 0.022.
For LALFDPAQRHAR, the protein stability index is 0.704 ± 0.052.
Then LALWNGVSMEEE, with 0.654 ± 0.039; and LALYISFGLSLI, with 0.526 ± 0.031.
Then LALYPYIPDSPF, with 0.636 ± 0.048; and LAPPPPAPPMSP, with 0.717 ± 0.013; and LAPPVRECPFML, with 0.692 ± 0.072.
The value for LAPSPPPPPLPL was 0.677 ± 0.01; that for LAPSPTSRPIKC was 0.677 ± 0.018.
Take LAPTPLAPSPPP: the protein stability index amounted to 0.728 ± 0.055.
The value for LARTSVACEGLG was 0.703 ± 0.045.
Then LASLVANSRNSL, with 0.798 ± 0.27.
The value for LATLLIRLLGQA was 0.496 ± 0.0088.
Regarding LCAGASYTMTVP, the protein stability index worked out at 0.694 ± 0.021.
The value for LCCMFGLAGRGV was 0.654 ± 0.0083; that for LCFPHDFFSSSS was 0.7768 ± 0.0058; that for LCGALWGAARGE was 0.728 ± 0.019.
Then LCKGCEGGVMQR, with 0.666 ± 0.037; and LCPSLSSPTSAT, with 0.659 ± 0.029.
The value for LCPWRYAVLFSP was 0.645 ± 0.068; that for LCRFPSSPQLPS was 0.7236 ± 0.0071; that for LCRLTNVCGAVV was 0.6543 ± 0.004.
The sequence LCSPKPASAPGH displayed a protein stability index of 0.668 ± 0.032.
The value for LCVLFVSKPTPE was 0.67 ± 0.019; that for LDLVFYMFSPFL was 0.618 ± 0.061; that for LDTRTLGVLTVG was 0.633 ± 0.025.
The value for LDVGSFLALRMR was 0.627 ± 0.036; that for LEPSDMDTDSDG was 0.706 ± 0.018; that for LESCFFGSFFFL was 0.778 ± 0.091.
Then LESGSARLFLWI, with 0.746 ± 0.16.
